Data as given in patent publication US20070053902 (published 2007).
Where two headings read alike, the source gives them in different places.

T1: human integrin alphavbeta3 (human, UniProt P06756)
T1 chain 1: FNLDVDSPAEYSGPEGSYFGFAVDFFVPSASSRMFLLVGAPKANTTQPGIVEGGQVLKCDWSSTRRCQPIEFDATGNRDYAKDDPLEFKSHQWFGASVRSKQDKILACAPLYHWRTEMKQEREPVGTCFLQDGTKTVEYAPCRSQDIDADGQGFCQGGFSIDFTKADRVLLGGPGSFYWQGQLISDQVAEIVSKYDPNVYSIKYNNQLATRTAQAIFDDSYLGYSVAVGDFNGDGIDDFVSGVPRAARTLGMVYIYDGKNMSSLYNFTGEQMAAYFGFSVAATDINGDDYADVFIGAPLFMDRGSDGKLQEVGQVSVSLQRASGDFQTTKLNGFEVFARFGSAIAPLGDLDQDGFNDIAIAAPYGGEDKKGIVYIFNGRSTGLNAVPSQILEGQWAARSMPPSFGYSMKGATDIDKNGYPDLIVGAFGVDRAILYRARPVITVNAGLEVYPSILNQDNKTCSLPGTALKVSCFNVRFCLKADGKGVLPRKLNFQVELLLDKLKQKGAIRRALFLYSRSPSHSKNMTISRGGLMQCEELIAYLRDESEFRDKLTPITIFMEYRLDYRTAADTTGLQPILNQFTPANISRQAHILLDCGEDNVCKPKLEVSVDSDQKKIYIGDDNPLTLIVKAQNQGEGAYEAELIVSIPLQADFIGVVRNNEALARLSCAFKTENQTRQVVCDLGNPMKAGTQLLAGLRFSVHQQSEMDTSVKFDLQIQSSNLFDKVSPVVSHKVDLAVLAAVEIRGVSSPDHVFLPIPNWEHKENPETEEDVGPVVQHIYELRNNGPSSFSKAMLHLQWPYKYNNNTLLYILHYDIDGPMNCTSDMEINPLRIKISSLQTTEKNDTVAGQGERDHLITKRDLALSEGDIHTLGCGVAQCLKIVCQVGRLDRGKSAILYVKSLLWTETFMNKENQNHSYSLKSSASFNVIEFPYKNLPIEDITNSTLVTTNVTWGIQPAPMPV
T1 chain 2: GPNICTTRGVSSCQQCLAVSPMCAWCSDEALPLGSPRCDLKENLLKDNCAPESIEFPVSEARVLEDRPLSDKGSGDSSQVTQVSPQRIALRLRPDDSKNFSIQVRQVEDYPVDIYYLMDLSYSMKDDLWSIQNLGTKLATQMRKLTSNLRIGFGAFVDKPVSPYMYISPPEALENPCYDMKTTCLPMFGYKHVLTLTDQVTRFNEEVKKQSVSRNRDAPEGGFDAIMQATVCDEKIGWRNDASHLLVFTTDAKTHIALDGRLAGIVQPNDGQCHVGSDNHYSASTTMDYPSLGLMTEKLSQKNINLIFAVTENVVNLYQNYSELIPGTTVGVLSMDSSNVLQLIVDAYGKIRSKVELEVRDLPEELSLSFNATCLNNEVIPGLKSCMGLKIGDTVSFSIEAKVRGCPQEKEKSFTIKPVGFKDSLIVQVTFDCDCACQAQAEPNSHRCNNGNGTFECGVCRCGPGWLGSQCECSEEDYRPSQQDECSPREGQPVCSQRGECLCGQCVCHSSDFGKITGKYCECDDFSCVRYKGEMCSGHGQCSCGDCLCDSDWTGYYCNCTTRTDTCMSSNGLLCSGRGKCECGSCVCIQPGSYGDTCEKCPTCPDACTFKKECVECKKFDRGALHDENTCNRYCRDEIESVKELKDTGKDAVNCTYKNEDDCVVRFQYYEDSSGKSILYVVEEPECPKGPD

B1: murine D12 (antibody, V domains shown)
VH: EIQLQQSGPEVVKPGASVKVSCKASGYAFTSYNMYWVKQSHGKSLEWIGYIDPYNGDTFYNQKFKGKATLTVDKSSSTAYMHLNSLTSEDSAVFYCARQNYGSFAYWGQGTLVTVSA
VL: DIVLTQSPATLSVTPGDSVSLSCRASQSISNHLHWYQQRSHESPRLLIKYASQSISGIPSRFRGSGSGTDFTLNINILETEDFGMYFCQQSNSWPFTFGSGTNLEIKR
B2: HZD12-IgG4 (antibody, V domains shown)
VH: QVQLVQSGAEVKKPGASVKVSCKASGYAFTSYNMYWVRQAPGQGLEWIGYIDPYNGDTFYNQKFKGKATLTVDKSTSTAYMELSSLRSEDTAVYYCARQNYGSFAYWGQGTLVTVSS
VL: DIVLTQSPGTLSLSPGERATLSCRASQSISNHLHWYQQKPGQAPRLLIKYASQSISGIPSRFSGSGSGTDFTLTISRLEPEDFAVYYCQQSNSWPFTFGQGTKVEIK
B3: HZD12-IgG1 (antibody, V domains shown)
VH: B2 VH
VL: B2 VL

Columns and labels:
[1] = target: T1, human integrin alphavbeta3; assay: SPR
[2] = target: T1, human integrin alphavbeta3; assay: SPR

| Binder | Kd [1] | Kd [2] |
| --- | --- | --- |
| B1 | 0.53 nM | 1.3 nM |
| B2 |  | 1.1 nM |
| B3 |  | 1 nM |
